Laboratory results: the supplement of paper PMC5998384

Assays:
HeLa Kyoto [1] = assay: solubility in G1/S (NP-40 vs SDS abundance) (log2 ratio); higher = more soluble; conditions: cell cycle stage: G1/S
HeLa Kyoto [2] = assay: solubility change mitosis vs G1/S (difference of NP-40 vs SDS log2 ratios) (log2 ratio difference); higher = more soluble in mitosis
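Wherever solubility change mitosis vs G1/S (difference of NP-40 vs SDS log2 ratios) is given: synchronized HeLa Kyoto cells (double thymidine block for G1/S, nocodazole release for mitosis), protein amounts in NP-40 versus SDS lysates quantified by mass spectrometry, three biological replicates.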
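Wherever solubility in G1/S (NP-40 vs SDS abundance) is given: HeLa Kyoto cells arrested at G1/S by double thymidine block, proteins quantified by TMT10plex mass spectrometry in mild NP-40 versus SDS extracts, three biological replicates.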

| Substance | solubility in G1/S (log2) (HeLa Kyoto [1]) | solubility change mitosis (log2) (HeLa Kyoto [2]) |
| --- | --- | --- |
| MAGTALKRLMAEYKQLTLNPPEGIVAGPMNEENFFEWEALIMGPEDTCFEFGVFPAILSFPLDYPLSPPKMRFTCEMFHPNIYPDGRVCISILHAPGDDPMGYESSAERWSPVQSVEKILLSVVSMLAEPNDESGANVDASKMWRDDREQFYKIAKQIVQKSLGL [UBE2G2] | 0.6 | 0.17 |
| MALDPADQHLRHVEKDVLIPKIMREKAKERCSEQVQDFTKCCKNSGVLMVVKCRKENSALKECLTAYYNDPAFYEECKMEYLKEREEFRKTGIPTKKRLQKLPTSM [CMC1] | -0.253 | 0.26 |
| MALKAEGAALDCFEVTLKCEEGEDEEEAMVVAVIPRPEPMLRVTQQEKTPPPRPSPLEAGSDGCEEPKQQVSWEQEFLVGSSPGGSGRALCMVCGAEIRAPSADTARSHILEQHPHTLDLSPSEKSNILEAWSEGVALLQDVRAEQPSPPNSDSGQDAHPDPDANPDAARMPAEIVVLLDSEDNPSLPKRSRPRGLRPLELPAVPATEPGNKKPRGQRWKEPPGEEPVRKKRGRPMTKNLDPDPEPPSPDSPTETFAAPAEVRHFTDGSFPAGFVLQLFSHTQLRGPDSKDSPKDREVAEGGLPRAESPSPAPPPGLRGTLDLQVIRVRMEEPPAVSLLQDWSRHPQGTKRVGAGDTSDWPTVLSESSTTVAGKPEKGNGV [C11ORF84] | 0.38 | 0.023 |
| MALLSRPALTLLLLLMAAVVRCQEQAQTTDWRATLKTIRNGVHKIDTYLNAALDLLGGEDGLCQYKCSDGSKPFPRYGYKPSPPNGCGSPLFGVHLNIGIPSLTKCCNQHDRCYETCGKSKNDCDEEFQYCLSKICRDVQKTLGLTQHVQACETTVELLFDSVIHLGCKPYLDSQRAACRCHYEEKTDL [PLA2G12A] | -0.604 | 0.347 |
| MALVRALVCCLLTAWHCRSGLGLPVAPAGGRNPPPAIGQFWHVTDLHLDPTYHITDDHTKVCASSKGANASNPGPFGDVLCDSPYQLILSAFDFIKNSGQEASFMIWTGDSPPHVPVPELSTDTVINVITNMTTTIQSLFPNLQVFPALGNHDYWPQDQLPVVTSKVYNAVANLWKPWLDEEAISTLRKGGFYSQKVTTNPNLRIISLNTNLYYGPNIMTLNKTDPANQFEWLESTLNNSQQNKEKVYIIAHVPVGYLPSSQNITAMREYYNEKLIDIFQKYSDVIAGQFYGHTHRDSIMVLSDKKGSPVNSLFVAPAVTPVKSVLEKQTNNPGIRLFQYDPRDYKLLDMLQYYLNLTEANLKGESIWKLEYILTQTYDIEDLQPESLYGLAKQFTILDSKQFIKYYNYFFVSYDSSVTCDKTCKAFQICAIMNLDNISYADCLKQLYIKHNY [SMPDL3A] | 0.322 | 0.18 |
| MALVTVSRSPPGSGASTPVGPWDQAVQRRSRLQRRQSFAVLRGAVLGLQDGGDNDDAAEASSEPTEKAPSEEELHGDQTDFGQGSQSPQKQEEQRQHLHLMVQLLRPQDDIRLAAQLEAPRPPRLRYLLVVSTREGEGLSQDETVLLGVDFPDSSSPSCTLGLVLPLWSDTQVYLDGDGGFSVTSGGQSRIFKPISIQTMWATLQVLHQACEAALGSGLVPGGSALTWASHYQERLNSEQSCLNEWTAMADLESLRPPSAEPGGSSEQEQMEQAIRAELWKVLDVSDLESVTSKEIRQALELRLGLPLQQYRDFIDNQMLLLVAQRDRASRIFPHLYLGSEWNAANLEELQRNRVTHILNMAREIDNFYPERFTYHNVRLWDEESAQLLPHWKETHRFIEAARAQGTHVLVHCKMGVSRSAATVLAYAMKQYECSLEQALRHVQELRPIARPNPGFLRQLQIYQGILTASRQSHVWEQKVGGVSPEEHPAPEVSTPFPPLPPEPEGGGEEKVVGMEESQAAPKEEPGPRPRINLRGVMRSISLLEPSLELESTSETSDMPEVFSSHESSHEEPLQPFPQLARTKGGQQVDRGPQPALKSRQSVVTLQGSAVVANRTQAFQEQEQGQGQGQGEPCISSTPRFRKVVRQASVHDSGEEGEA [SSH3] | 0.212 | -0.161 |
| MANETQKVGAIHFPFPFTPYSIQEDFMAELYRVLEAGKIGIFESPTGTGKSLSLICGALSWLRDFEQKKREEEARLLETGTGPLHDEKDESLCLSSSCEGAAGTPRPAGEPAWVTQFVQKKEERDLVDRLKAEQARRKQREERLQQLQHRVQLKYAAKRLRQEEEERENLLRLSREMLETGPEAERLEQLESGEEELVLAEYESDEEKKVASRVDEDEDDLEEEHITKIYYCSRTHSQLAQFVHEVKKSPFGKDVRLVSLGSRQNLCVNEDVKSLGSVQLINDRCVDMQRSRHEKKKGAEEEKPKRRRQEKQAACPFYNHEQMGLLRDEALAEVKDMEQLLALGKEARACPYYGSRLAIPAAQLVVLPYQMLLHAATRQAAGIRLQDQVVIIDEAHNLIDTITGMHSVEVSGSQLCQAHSQLLQYVERYGKRLKAKNLMYLKQILYLLEKFVAVLGGNIKQNPNTQSLSQTGTELKTINDFLFQSQIDNINLFKVQRYCEKSMISRKLFGFTERYGAVFSSREQPKLAGFQQFLQSLQPRTTEALAAPADESQASTLRPASPLMHIQGFLAALTTANQDGRVILSRQGSLSQSTLKFLLLNPAVHFAQVVKECRAVVIAGGTMQPVSDFRQQLLACAGVEAERVVEFSCGHVIPPDNILPLVICSGISNQPLEFTFQKRELPQMMDEVGRILCNLCGVVPGGVVCFFPSYEYLRQVHAHWEKGGLLGRLAARKKIFQEPKSAHQVEQVLLAYSRCIQACGQERGQVTGALLLSVVGGKMSEGINFSDNLGRCVVMVGMPFPNIRSAELQEKMAYLDQTLSPRPGTPREGSGGEPVHEGRQPVHRQGHQAPEGFCQRSAPGPAICPAPCPGQAAGLDPSPCGGQSYLWPRHCCCAEVSPGEVGLFLMGNHTTAWRRALPLSCPLETVFVVGVVCGDPVTKVKPRRRVWSPECCQDPGTGVSSRRRKWGNPE [DDX11] | -0.119 | -0.0575 |
| MAP3K1 | -0.0921 | -0.131 |
| MAPALLLIPAALASFILAFGTGVEFVRFTSLRPLLGGIPESGGPDARQGWLAALQDRSILAPLAWDLGLLLLFVGQHSLMAAERVKAWTSRYFGVLQRSLYVACTALALQLVMRYWEPIPKGPVLWEARAEPWATWVPLLCFVLHVISWLLIFSILLVFDYAELMGLKQVYYHVLGLGEPLALKSPRALRLFSHLRHPVCVELLTVLWVVPTLGTDRLLLAFLLTLYLGLAHGLDQQDLRYLRAQLQRKLHLLSRPQDGEAE [NRM] | -0.275 | 0.167 |
| MAPDPWFSTYDSTCQIAQEIAEKIQQRNQYERKGEKAPKLTVTIRALLQNLKEKIALLKDLLLRAVSTHQITQLEGDRRQNLLDDLVTRERLLLASFKNEGAEPDLIRSSLMSEEAKRGAPNPWLFEEPEETRGLGFDEIRQQQQKIIQEQDAGLDALSSIISRQKQMGQEIGNELDEQNEIIDDLANLVENTDEKLRNETRRVNMVDRKSASCGMIMVILLLLVAIVVVAVWPTN [STX8] | 0.624 | -0.0243 |
| MAPVRRSAKWRPGGIEARGEGVSTVGYRNKNVRQKTWRPNHPQAFVGSVREGQGFAFRRKLKIQQSYKKLLRKEKKAQTSLESQFTDRYPDNLKHLYLAEEERHRKQARKVDHPLSEQVHQPLLEEQCSIDEPLFEDQCSFDQPQPEEQCIKTVNSFTIPKKNKKKTSNQKAQEEYEQIQAKRAAKKQEFERRKQEREEAQRQYKKKKMEVFKILNKKTKKGQPNLNVQMEYLLQKIQEKC [CCDC59] | -0.512 | 0.278 |
| MARLTKRRQADTKAIQHLWAAIEIIRNQKQIANIDRITKYMSRVHGMHPKETTRQLSLAVKDGLIVETLTVGCKGSKAGIEQEGYWLPGDEIDWETENHDWYCFECHLPGEVLICDLCFRVYHSKCLSDEFRLRDSSSPWQCPVCRSIKKKNTNKQEMGTYLRFIVSRMKERAIDLNKKGKDNKHPMYRRLVHSAVDVPTIQEKVNEGKYRSYEEFKADAQLLLHNTVIFYGADSEQADIARMLYKDTCHELDELQLCKNCFYLSNARPDNWFCYPCIPNHELVWAKMKGFGFWPAKVMQKEDNQVDVRFFGHHHQRAWIPSENIQDITVNIHRLHVKRSMGWKKACDELELHQRFLREGRFWKSKNEDRGEEEAESSISSTSNEQLKVTQEPRAKKGRRNQSVEPKKEEPEPETEAVSSSQEIPTMPQPIEKVSVSTQTKKLSASSPRMLHRSTQTTNDGVCQSMCHDKYTKIFNDFKDRMKSDHKRETERVVREALEKLRSEMEEEKRQAVNKAVANMQGEMDRKCKQVKEKCKEEFVEEIKKLATQHKQLISQTKKKQWCYNCEEEAMYHCCWNTSYCSIKCQQEHWHAEHKRTCRRKR [ZMYND11] | -2.1 | 0.83 |
| MARTLEPLAKKIFKGVLVAELVGVFGAYFLFSKMHTSQDFRQTMSKKYPFILEVYYKSTEKSGMYGIRELDQKTWLNSKN [CEBPZOS] | -0.306 | -0.012 |
| MASASARGNQDKDAHFPPPSKQSLLFCPKSKLHIHRAEISKIMRECQEESFWKRALPFSLVSMLVTQGLVYQGYLAANSRFGSLPKVALAGLLGFGLGKVSYIGVCQSKFHFFEDQLRGAGFGPQHNRHCLLTCEECKIKHGLSEKGDSQPSAS [OCIAD2] | 0.0856 | -0.0442 |
| MASKRKSTTPCMIPVKTVVLQDASMEAQPAETLPEGPQQDLPPEASAASSEAAQNPSSTDGSTLANGHRSTLDGYLYSCKYCDFRSHDMTQFVGHMNSEHTDFNKDPTFVCSGCSFLAKTPEGLSLHNATCHSGEASFVWNVAKPDNHVVVEQSIPESTSTPDLAGEPSAEGADGQAEIIITKTPIMKIMKGKAEAKKIHTLKENVPSQPVGEALPKLSTGEMEVREGDHSFINGAVPVSQASASSAKNPHAANGPLIGTVPVLPAGIAQFLSLQQQPPVHAQHHVHQPLPTAKALPKVMIPLSSIPTYNAAMDSNSFLKNSFHKFPYPTKAELCYLTVVTKYPEEQLKIWFTAQRLKQGISWSPEEIEDARKKMFNTVIQSVPQPTITVLNTPLVASAGNVQHLIQAALPGHVVGQPEGTGGGLLVTQPLMANGLQATSSPLPLTVTSVPKQPGVAPINTVCSNTTSAVKVVNAAQSLLTACPSITSQAFLDASIYKNKKSHEQLSALKGSFCRNQFPGQSEVEHLTKVTGLSTREVRKWFSDRRYHCRNLKGSRAMIPGDHSSIIIDSVPEVSFSPSSKVPEVTCIPTTATLATHPSAKRQSWHQTPDFTPTKYKERAPEQLRALESSFAQNPLPLDEELDRLRSETKMTRREIDSWFSERRKKVNAEETKKAEENASQEEEEAAEDEGGEEDLASELRVSGENGSLEMPSSHILAERKVSPIKINLKNLRVTEANGRNEIPGLGACDPEDDESNKLAEQLPGKVSCKKTAQQRHLLRQLFVQTQWPSNQDYDSIMAQTGLPRPEVVRWFGDSRYALKNGQLKWYEDYKRGNFPPGLLVIAPGNRELLQDYYMTHKMLYEEDLQNLCDKTQMSSQQVKQWFAEKMGEETRAVADTGSEDQGPGTGELTAVHKGMGDTYSEVSENSESWEPRVPEASSEPFDTSSPQAGRQLETD [ZHX3] | 0.105 | -0.0607 |
| MASNFKKANMASSSQRKRMSPKPELTEEQKQEIREAFDLFDADGTGTIDVKELKVAMRALGFEPKKEEIKKMISEIDKEGTGKMNFGDFLTVMTQKMSEKDTKEEILKAFKLFDDDETGKISFKNLKRVAKELGENLTDEELQEMIDEADRDGDGEVSEQEFLRIMKKTSLY [CETN2] | 0.117 | 0.68 |
